Assay [1] concerns the target T1, cyno FcRn (biotinylated) (cynomolgus, UniProt Q8SPV9 24-297; Q8SPW0 21-119, limits assumed, biotinylated (site not stated)).
T1 construct: also called Cynomolgus FcRn; cynomolgus monkey FcRn
In words: SPR, Biacore 8K+, biotinylated cyno FcRn captured on SA chip, pH 6.0, bivalent analyte fit. Here is the method:
(§1) The Nanobody® VHH-Fc protein constructs (FcRn antagonists) were characterized by affinity determination for human FcRn and cyno FcRn at pH 6.0 and pH 7.4 on the Biacore 8K+ instrument. For affinity measurements, ^{˜}200-400 of biotinylated human or cyno FcRn was captured on a Series S Sensor Chip SA. The Nanobody® VHH-Fc fusion proteins were injected at 9 different concentrations (between 0.5 and 1500 nM) and allowed to associate for 120 s at 30 μL/min and dissociate for 600 s.
(§2) The data could not be fitted with the 1:1 Langmuir dissociation model, and a Bivalent Analyte fitting model was used instead due to biphasic on-rate behaviour observed during analysis. The FcRn affinities obtained for TP061 were in line with the published data (see, e.g., Vaccaro, C., Zhou, J., Ober, R. et al., “Engineering the Fc region of immunoglobulin G to modulate in vivo antibody levels”, Nat. Biotechnol. 23, 1283-1288 (2005)).

For assay [2], the target named is T1, cyno FcRn (biotinylated). In words: SPR, Biacore 8K+, biotinylated cyno FcRn captured on SA chip, pH 7.4, bivalent analyte fit. Here is the method: as §1, §2
Assay [3] deals with T2, human FcRn (biotinylated) (human, UniProt P61769 21-119, biotinylated (site not stated)).
T2 construct: also called neonatal Fc receptor; FcRP
T2 sequence (chain, as listed by the source limits assumed, chain 1 of 2): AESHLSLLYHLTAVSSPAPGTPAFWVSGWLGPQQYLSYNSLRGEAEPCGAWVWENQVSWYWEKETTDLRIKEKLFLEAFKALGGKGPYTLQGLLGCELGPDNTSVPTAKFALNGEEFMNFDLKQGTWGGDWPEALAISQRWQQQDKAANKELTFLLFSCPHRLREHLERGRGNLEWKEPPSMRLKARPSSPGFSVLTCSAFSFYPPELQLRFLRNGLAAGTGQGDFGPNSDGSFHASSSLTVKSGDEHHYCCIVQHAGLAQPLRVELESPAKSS
T2 sequence (P61769 21-119 limits assumed, chain 2 of 2): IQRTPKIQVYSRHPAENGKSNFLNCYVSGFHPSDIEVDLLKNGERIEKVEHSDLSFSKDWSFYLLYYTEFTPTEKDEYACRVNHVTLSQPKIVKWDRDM
The experiment in a line: SPR, Biacore 8K+, biotinylated human FcRn captured on SA chip, pH 6.0, bivalent analyte fit. Here is the method: as §1, §2

In assay [4] the target is T2, human FcRn (biotinylated). The experiment in a line: SPR, Biacore 8K+, biotinylated human FcRn captured on SA chip, pH 7.4, bivalent analyte fit. Here is the method: as §1, §2
Assay [5] concerns the target T1, cyno FcRn (biotinylated). In words: SPR, Biacore 8K+, biotinylated cyno FcRn captured on SA chip, pH 6.0, bivalent analyte fit; pH 6.0. Here is the method: as §1, §2
The target of assay [6] is T2, human FcRn (biotinylated). In words: SPR, Biacore 8K+, biotinylated human FcRn captured on SA chip, pH 6.0, bivalent analyte fit; pH 6.0. Here is the method: as §1, §2

T1 sequence (Q8SPV9 24-297 limits assumed, chain 1 of 2): as the sequence (chain, as listed by the source limits assumed, chain 1 of 2) above, with N39D, E44Q, G99S, S189G, S190N, L217M, S269T counted along it
T1 sequence (Q8SPW0 21-119 limits assumed, chain 2 of 2): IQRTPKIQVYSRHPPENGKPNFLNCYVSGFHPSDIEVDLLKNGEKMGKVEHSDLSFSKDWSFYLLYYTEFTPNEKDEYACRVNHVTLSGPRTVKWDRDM

B1: T-0263-00_TP069 (Fc fusion)
chain 1: DKTHTCPPCPAPELLGGPSVFLFPPKPKDTLYITREPEVTCVVVDVSHEDPEVKFNWYVDGVEVHNAKTKPREEQYNSTYRVVSVLTVLHQDWLNGKEYKCKVSNKALPAPIEKTISKAKGQPREPQVYTLPPCRDELTKNQVSLWCLVKGFYPSDIAVEWESNGQPENNYKTTPPVLDSDGSFFLYSKLTVDKSRWQQGNVFSCSVMHEALKFHYTQKSLSLSPGGGGGSGGGGSGGGGSGGGGSGGGGSGGGGSGGGGSEVQLVESGGGVVQPGGSLRLSCAASGFTFSSYAMYWVRQAPGKGLEWVSAISSGGGSTDYADSVKGRFTISRDNSKNTLYLQMNSLRPEDTALYYCAADTLYTSLTSYSYWGQGTLVTVSS
chain 2: DKTHTCPPCPAPELLGGPSVFLFPPKPKDTLYITREPEVTCVVVDVSHEDPEVKFNWYVDGVEVHNAKTKPREEQYNSTYRVVSVLTVLHQDWLNGKEYKCKVSNKALPAPIEKTISKAKGQPREPQVCTLPPSRDELTKNQVSLSCAVKGFYPSDIAVEWESNGQPENNYKTTPPVLDSDGSFFLVSKLTVDKSRWQQGNVFSCSVMHEALKFHYTQKSLSLSPG
notes: also called C-terminal fusion construct; human IgG1 Fc YTE-KF (knob)-35GS-T0263018B11(W100cS) + Fc YTE-KF (hole)
B1: the Kd with cyno FcRn (biotinylated) [1] turned out to be 0.683 nM; in the assay with cyno FcRn (biotinylated) [2], 12.5 nM; in assay [3] it was 0.873 nM; in assay [4] it was 14 nM.

B2: T-0263-00_TP067 (Fc fusion)
chain 1: DVQLVESGGGVVQPGGSLRLSCAASGFTFSSYAMYWVRQAPGKGLEWVSAISSGGGSTDYADSVKGRFTISRDNSKNTLYLQMNSLRPEDTALYYCAADTLYTSLTSYSYWGQGTLVTVSSDKTHTCPPCPAPELLGGPSVFLFPPKPKDTLYITREPEVTCVVVDVSHEDPEVKFNWYVDGVEVHNAKTKPREEQYNSTYRVVSVLTVLHQDWLNGKEYKCKVSNKALPAPIEKTISKAKGQPREPQVYTLPPCRDELTKNQVSLWCLVKGFYPSDIAVEWESNGQPENNYKTTPPVLDSDGSFFLYSKLTVDKSRWQQGNVFSCSVMHEALKFHYTQKSLSLSPG
chain 2: DKTHTCPPCPAPELLGGPSVFLFPPKPKDTLYITREPEVTCVVVDVSHEDPEVKFNWYVDGVEVHNAKTKPREEQYNSTYRVVSVLTVLHQDWLNGKEYKCKVSNKALPAPIEKTISKAKGQPREPQVCTLPPSRDELTKNQVSLSCAVKGFYPSDIAVEWESNGQPENNYKTTPPVLDSDGSFFLVSKLTVDKSRWQQGNVFSCSVMHEALKFHYTQKSLSLSPG
notes: also called N-terminal fusion construct; T0263018B11(E1D,W100cS)-human IgG1 Fc YTE-KF (knob) + Fc YTE-KF (hole)
Regarding B2, the Kd in the assay with cyno FcRn (biotinylated) [1] was 0.541 nM; with cyno FcRn (biotinylated) [2], 11.2 nM; in assay [3], 0.692 nM; in assay [4], 10.3 nM.

B3: T-0263-00_TP061 (other)
chain: DKTHTCPPCPAPELLGGPSVFLFPPKPKDTLYITREPEVTCVVVDVSHEDPEVKFNWYVDGVEVHNAKTKPREEQYNSTYRVVSVLTVLHQDWLNGKEYKCKVSNKALPAPIEKTISKAKGQPREPQVYTLPPSRDELTKNQVSLTCLVKGFYPSDIAVEWESNGQPENNYKTTPPVLDSDGSFFLYSKLTVDKSRWQQGNVFSCSVMHEALKFHYTQKSLSLSPGK
notes: Symmetrical (homodimeric) Fc-only control made without knob-in-hole; also called control FcRn antagonist; IgG1 Fc YTE-KF Fc domain without Nanobody VHH
As for B3, the Kd is 27.5 nM with cyno FcRn (biotinylated) [5] and 17.2 nM in assay [6].

These data come from patent US20250034260A1 (Sanofi, published 2025).
